The assay concerns the target Recombinant stabilized SARS-CoV-2 spike for ELISA (Wuhan) (SARS-CoV-2, Wuhan, UniProt P0DTC2, stabilised). The assay can be described thus: ELISA. The conditions noted are these: both partners purified.

B1: P008_60 IgG (antibody, V domains shown)
VH: EVQLVESGGGVVQPGRSLRLTCAASGFIFSSYGMHWVRQAPGKGLEWVAVISYDGSYKYYADSVKGRFTISRDNSKNTLYLQMNSLRAEDTAVYYCTKADYYDFWSGYQKTYYYYMDVWGKGTTVTISS
VL: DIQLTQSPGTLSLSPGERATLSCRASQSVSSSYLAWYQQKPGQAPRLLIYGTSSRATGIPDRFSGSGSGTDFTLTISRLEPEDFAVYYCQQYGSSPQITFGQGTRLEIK
notes: also called mAb P008_60; P008_060; source: HEK-293F, co-transfected heavy and light plasmids, purified (protein G)
Turning to B1, the binding result is “binds”.

Values taken from article PMC9365860 (Cell Reports, 2022).
